Assay results taken from US8829044B2, “Stabilized vitamin C derivatives having a peptide molecule, preparation method thereof, and composition containing the same” (Peotron Co. Ltd., priority 2006, dated 2014).
Peptide text beside a SMILES is read from it. * marks the point of attachment. X1 = O=C(CCC(=O)*)O[C@@H](CO)[C@H]1OC(=O)C(OP(=O)(O)O)=C1O; X2 = O=C(CCC(=O)*)O[C@@H](CO)[C@H]1OC(=O)C(O)=C1O

Test: physchem
Description: Stability of each substance was evaluated, while being maintained at 25° C. and 50° C. for 30 days, by observing the change of UV (254 nm) absorbance.

[1] = buffer, Remaining test substance (%)

C[C@@H](O)[C@H](NC(=O)[C@H](CCCCN)NC(=O)CCC(=O)O[C@@H](CO)[C@H]1OC(=O)C(OP(=O)(O)O)=C1O)C(=O)N[C@H](C(=O)N[C@@H](CCCCN)C(=O)N[C@@H](CO)C(=O)O)[C@@H](C)O [Ic-1, 2-phospho-5-(succinyl-lysine-threonine-threonine-lysine-serine) ascorbic acid] (X1-KTTKS-OH) gave a remaining at 24 h, 10 μg/mL [1] of 100%, a remaining at 48 h, 10 μg/mL [1] of 100% and a remaining at 72 h, 10 μg/mL [1] of 100%. The remaining at 120 h, 10 μg/mL [1] was 100% and the remaining at 240 h, 10 μg/mL [1] was 100%.
With O=C1O[C@H]([C@@H](O)CO)C(O)=C1O [Vitamin C, ascorbic acid] the “Remaining test substance (%)” value (buffer, 0 day, 10 μg/mL) was 100%, the “Remaining test substance (%)” value (buffer, 2 day, 10 μg/mL) was 0% and the “Remaining test substance (%)” value (buffer, 3 day, 10 μg/mL) was 0%. The “Remaining test substance (%)” value (buffer, 5 day, 10 μg/mL) was 0%, the “Remaining test substance (%)” value (buffer, 10 day, 10 μg/mL) was 0% and the “Remaining test substance (%)” value (buffer, 20 day, 10 μg/mL) was 0%. The “Remaining test substance (%)” value (buffer, 30 day, 10 μg/mL) was 0%.
C[C@@H](O)[C@H](NC(=O)[C@H](CCCCN)NC(=O)CCC(=O)O[C@@H](CO)[C@H]1OC(=O)C(O)=C1O)C(=O)N[C@H](C(=O)N[C@@H](CCCCN)C(=O)N[C@@H](CO)C(=O)O)[C@@H](C)O [succinoyl ascorbyl pentapeptide] (X2-KTTKS-OH) showed a remaining at 24 h, 10 μg/mL (buffer, Remaining test substance (%), day 1, 25° C., 10 μg/mL in purified water) of 60%, a remaining at 24 h, 10 μg/mL (buffer, Remaining test substance (%), day 1, 50° C., 10 μg/mL in purified water) of 50% and a remaining at 48 h, 10 μg/mL (buffer, Remaining test substance (%), day 2, 25° C., 10 μg/mL in purified water) of 20%. For the same compound, the remaining at 48 h, 10 μg/mL (buffer, Remaining test substance (%), day 2, 50° C., 10 μg/mL in purified water) was 10%, the remaining at 72 h, 10 μg/mL (buffer, Remaining test substance (%), day 3, 25° C., 10 μg/mL in purified water) was 10% and the remaining at 72 h, 10 μg/mL (buffer, Remaining test substance (%), day 3, 50° C., 10 μg/mL in purified water) was 0%. The remaining at 120 h, 10 μg/mL (buffer, Remaining test substance (%), day 5, 50° C., 10 μg/mL in purified water) was 0%, the remaining at 240 h, 10 μg/mL (buffer, Remaining test substance (%), day 10, 50° C., 10 μg/mL in purified water) was 0% and the remaining at 480 h, 10 μg/mL (buffer, Remaining test substance (%), day 20, 50° C., 10 μg/mL in purified water) was 0%. For the same compound, the remaining at 720 h, 10 μg/mL (buffer, Remaining test substance (%), day 30, 50° C., 10 μg/mL in purified water) was 0%, the “Remaining test substance (%)” value (day 0, 25° C., 10 μg/mL in purified water) was 100% and the “Remaining test substance (%)” value (day 0, 50° C., 10 μg/mL in purified water) was 100%. The “Remaining test substance (%)” value (day 5, 25° C., 10 μg/mL in purified water) was 0%, the “Remaining test substance (%)” value (day 10, 25° C., 10 μg/mL in purified water) was 0% and the “Remaining test substance (%)” value (day 20, 25° C., 10 μg/mL in purified water) was 0%. The “Remaining test substance (%)” value (day 30, 25° C., 10 μg/mL in purified water) was 0%.
